Data on one substance can be found in patent US20240141007A1.

The assay has as its target human FcRn (human) (UniProt P55899). Nature of the assay: SPR, hFcRn as ligand.

human FcRn (human), sequence (P55899 24-297 limits assumed, chain 1 of 2): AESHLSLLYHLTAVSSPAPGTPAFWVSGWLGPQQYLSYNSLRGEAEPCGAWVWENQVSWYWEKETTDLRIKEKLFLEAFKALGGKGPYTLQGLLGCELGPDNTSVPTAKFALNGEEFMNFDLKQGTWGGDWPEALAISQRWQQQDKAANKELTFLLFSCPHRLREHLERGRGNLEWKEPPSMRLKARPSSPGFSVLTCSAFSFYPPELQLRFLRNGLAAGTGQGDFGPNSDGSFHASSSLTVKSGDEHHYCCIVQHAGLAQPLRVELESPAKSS
human FcRn (human), sequence (P61769 21-119 limits assumed, chain 2 of 2, further chain): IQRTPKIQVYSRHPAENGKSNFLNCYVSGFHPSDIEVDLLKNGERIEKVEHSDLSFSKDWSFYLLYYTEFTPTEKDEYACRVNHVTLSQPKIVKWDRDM

In turn, Ipilimumab (antibody) displayed a Kd of 518 nM.
